In US20140322196A1:

Key:
Assay in all cases: cell-based or functional assay
[1] = molecular target: Hemagglutinin (HA) of Influenza A virus A/Wisconsin/67/2005 H3N2 (inactivated subunits, vaccine) (Influenza A virus A/Wisconsin/67/2005 H3N2)
[2] = molecular target: Hemagglutinin (HA) of Influenza A virus A/Parma/24/09 (Brisbane-like) (oseltamivir-resistant) H1N1 (Influenza A virus A/Parma/24/09 H1N1)
[3] = molecular target: Hemagglutinin (HA) of Influenza A virus A/Solomon 3/2006 H1N1 (inactivated subunits, vaccine) (Influenza A virus A/Solomon 3/2006 H1N1)

“Lactoferrin from bovine milk (bLf) (from UniProt P24627 20-708)” showed an HI titre [1] of 300 fM, an HI titre [2] of 6000 pM and an HI titre [3] of 5000 fM.
Substance “… (SEQ ID NO: 1), bLf C-lobe peptide 418-429” has an HI titre [1] of 23.2 fM, an HI titre [2] of 1.4 pM and an HI titre [3] of 46.5 fM.
“… (SEQ ID NO: 2), bLf C-lobe peptide 506-522” gave an HI titre [1] of 11.6 fM, an HI titre [2] of 1.4 pM and an HI titre [3] of 46.5 fM.
